Patent US20240287172A1 (SCIRHOM, published 2024)
Substitutions are numbered along the chain they refer to.

How the values were obtained:
Assay in all cases: FACS, MEF-DKO cells, 3 µg/ml
[1] = target: T1, hiR2-FL-F523W-T7 (human, UniProt Q6PJF5 1-856)
T1 sequence: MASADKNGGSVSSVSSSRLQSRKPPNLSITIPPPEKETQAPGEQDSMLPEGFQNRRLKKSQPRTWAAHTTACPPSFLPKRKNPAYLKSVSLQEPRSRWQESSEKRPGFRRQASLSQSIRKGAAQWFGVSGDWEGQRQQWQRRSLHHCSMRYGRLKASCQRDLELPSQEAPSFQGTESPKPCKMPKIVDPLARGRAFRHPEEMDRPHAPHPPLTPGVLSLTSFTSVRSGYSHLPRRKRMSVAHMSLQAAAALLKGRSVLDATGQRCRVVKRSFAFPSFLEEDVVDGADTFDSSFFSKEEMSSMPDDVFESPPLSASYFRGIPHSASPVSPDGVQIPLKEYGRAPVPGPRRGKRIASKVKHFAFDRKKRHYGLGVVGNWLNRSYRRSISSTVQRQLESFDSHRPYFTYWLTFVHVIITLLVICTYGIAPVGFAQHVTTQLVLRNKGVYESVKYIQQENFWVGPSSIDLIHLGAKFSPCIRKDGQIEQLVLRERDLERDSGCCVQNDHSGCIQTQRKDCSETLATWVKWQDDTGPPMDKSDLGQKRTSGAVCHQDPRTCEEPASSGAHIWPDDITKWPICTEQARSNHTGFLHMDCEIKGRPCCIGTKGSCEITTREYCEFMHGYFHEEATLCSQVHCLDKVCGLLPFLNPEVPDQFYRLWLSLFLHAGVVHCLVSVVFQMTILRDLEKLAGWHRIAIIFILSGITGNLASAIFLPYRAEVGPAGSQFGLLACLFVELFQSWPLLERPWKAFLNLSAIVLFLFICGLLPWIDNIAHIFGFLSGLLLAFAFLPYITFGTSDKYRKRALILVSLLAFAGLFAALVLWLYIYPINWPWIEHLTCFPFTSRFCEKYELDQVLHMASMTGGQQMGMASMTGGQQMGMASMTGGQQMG

[2] = target: T2, hiR2-FL-T522V-T7 (human, UniProt Q6PJF5 1-856)
T2 sequence: T1 sequence with T522V, W523F

[3] = target: T3, hiR2-FL-G531S-T7 (human, UniProt Q6PJF5 1-856)
T3 sequence: T1 sequence with W523F, G531S

Measured: loss of binding vs wild type

B1: antibody 48 (antibody, V domains shown)
VH: QVQLQQSGTELVRPGTSVKVSCKASGYAFTNYLIEWVKQRPGQGLEWIGVINPGSGFTKYNEKFKGKATLTADKSSSTVYMHLSSLTSEDSAVYFCARGLYRAMDYWGQGTSVTVSS
VL: DIQMTQSPASQSASLGESVTITCLASQTIATWLAWYQQKPGKSPQLLIYGATTLADGVPSRFSGGGSGTKFSFKISSLQAEDFVSYYCQQLYSTPYTFGGGTKLEIK
notes: mouse IgG, kappa light chain; also called clone #48; purified antibody 48
≥ 30%: all assays above

B2: antibody 50 (antibody, V domains shown)
VH: B1 VH with T9A, T16A, T30S, V79A, H82Q
VL: B1 VL with A30G, G50A, T52A, T53S, S85N, L91I
notes: mouse IgG, kappa light chain; also called clone #50; purified antibody 50
≥ 30%: all assays above
